test: yeast display, Sf9 membrane polyspecificity reagent, FACS + sequencing; frameworks hold sequencing errors
In short: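 Nanobodies from a synthetic yeast display library (Saccharomyces cerevisiae BJ5465), induced 36–48 hours with galactose, were stained 1 hour at 4 °C with 10% biotinylated, detergent-solubilized Sf9 membrane reagent, enriched on streptavidin microbeads, then FACS-sorted. Anti-HA (expression) and streptavidin (reagent binding) fluorescence set low and high (top ~1%) gates. Polyreactivity labels come from the gate of origin. Genes were colony-PCR amplified, MiSeq 2 × 250 sequenced and filtered by CDR length.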

Sequence	polyreactivity (PSR sort gate)
QVQLVESGGGLVQAGGSLRLSCAASGSIFEPNAKGWYRQAPGKERELVAVINYSGGSTYYADSVKGRFTISRDNAKNTVYLQMNSLKPEDTAVYYCAASHYHYRYGTPQPEYNYWGQGTQVTVSS	low polyreactivity
QVQLVQSWRGLVQAGASLRLSCAASGRIFPGYAMGWYREAPGKERELDASSSRTGRTNYADSVKGRFTISRVNAKNTVYLQMNRLKPEYTAVYYCANASPWYFWGYDYWGQGSQVTVSS	low polyreactivity
QVQLVESGGGLVQAGGSLRLSCAASGSIFVGYAMGWYRQAPGKERELVAAISASGSSTYYADSVKGRFTISRDNAKNTVYLQMNSLKPEDTAVYYCATKRVASSWTYVYWGQGSQVTVSS	high polyreactivity
QVQLVESGGGLVQAGGSLSLSCAASGRILFRYGMGWYRQAPGKERELVARISWSGGNTHYADSVKGRFTISRDNAKNTVYLQMNSLKPEDTAVYYCNAYYTYWYPRYDYWGQGTQVTVSS	low polyreactivity
QVQLVESGGGLVQAGGSLRLSCAASGRIFGSYAMGWYRQAPGKERELVAAISGDGDSTYYADSVKGRFTISRDNAKNTVYFQMNSLKPEDTAVYYCAAEPNVYFSVFVLFPSDYWGQGTQVTVSS	low polyreactivity
QVQLVESGGGLVQAGGSLRLSCAPSGLTIGHYAMGWYRQAPGKERELVAAISSGGSTYYADSVKGRFTISRDNAKNTVYLQMNSLKPEDTAVYYCAAVTVGTAYYARTFYYWGQGTQVTVSS	high polyreactivity
QVQLEESGGGLVQAGGSLRIRCAASGSTFVGYAMGWYRQAPGKERELVAAITSSGGRTYYADSVKGRFTISRDNAKNTVYLQMNSLKPEDTAVYYCAAPRARIGGSYDYWGQGTQVTGSS	high polyreactivity
QVQLVESGGGLVQAGGSLRLSCAASGSTFYIYAMGWYRQAPGKERELVARISGSGGSTYYADSVKVRFTISRDNAKNTVYLQMNSLKPEDTAVYYCAVDPPYSDSLSRYGYWGQGTQVTVSS	low polyreactivity
QVQLVESGGGLVQAGGSLRLSCAASGSIFIYNAMGWYRPAPGKETEFVDTINSGTVTKYADSVKGRFTISRDNAKNTVYLQMNSLKPEDTAVYYCATVFDRQYSTQYQVSRYDYWVQGTQVTVSS	low polyreactivity
QVKLVESGGGLVQAGGSLRLSCPASGFIFYDYVMGWYRQAPGKERELVAAISSNGGSTYYADSVKGRFSISRDNAKYTVYLQMNSLKPEDTAVYYCAAEGKSYPWPWYFDYWGQGTQVTVSS	high polyreactivity
QVQLVESGGGLVQAGGSLRLSCAASGFTFGSYAMGWYRQAPGKERELVAGISRGGSTNYADSVKGRFTISRDNAKNTVYLQMNSLKPEDTAVYYCAARAVYVADTGATPAGYDYWGQGTQVTVSS	low polyreactivity
QVQLVESGGGLVQAGGSLRLSCAASGGIFRYYAMGWYRQAPAKERELVAAISSGGRTYYADSVKGRFTISRDNAKTTVYLQMNSLKPEDTAVYYCNADRYWGYDYWGQGTQVTVSS	high polyreactivity
QVQLVESGGGLVQAGGSLRLSCAASGSIFGFNTMGWYRQAPGKERELVATINRSGGSTYYADSVKGRFTISRDNAKNTVYVQINSLKPEDTAVYYCAKDVWRHYMNLYDYWGQGTQVTVSS	low polyreactivity
QVQLVESGGGLVQAGGSLRLTCAASGSIFYYYAMGWYRQAPGKERELVASITYRGGSTYYADSVKGRFTISRDYAKNTVYLLMNSLKPEDTAFYYCAVVGYRYRHYYWGQGTQVTVSS	high polyreactivity
QVQLVESGGGLVQAGGSLRLSCAASGSIFSQYAMGWSRQAPGKERELVAAISSSGDSTNYADSVKGRFTISRDNAKNTVYLQMNSLKPEDTAVYYCAADFDWFIWGYDYWGQGTQVTVSS	low polyreactivity
QVQLVESGGGLVQAGGSLRLSCAASGRIFWYYAMGWYRQAPGKERELVAAISRSGGSTYYADSVKGRFTISRDNAKNTVYLQMNSLKPEDTAVYYCAAGARAFDDDSWGQGTQVTVSS	low polyreactivity
QVQLVESGGGLVQAGGSLLLSCAASGFTFSYYAMGWYRPAPGKERELVAAINWNGGSTYYADSVKGRFTISRDNAKNTVYLQMNSLKPEDTAVYYCNARQSYRYSQHGYWGQGTQLTVSS	high polyreactivity
QVQLVESGGGLVQAGGSLRLSCAASGSTFVFYAMGWYRLAPGKDRELVAINSGGSTYYADSVKGRFTISRDNAKNTVYLQMNSLKPEDTAVYFCAKDPLRVWRFDYWGQGTQVTVSS	low polyreactivity
QVQLVESGGGLVQAGGSLRLSCAASGGTFNSNAMGWYRQAPGKERELVASITWRCGTYYADSVKGRFTISRDNAKNTVYLQMNSLKPVDTAVYYCAADTYYKGDYWGQGTQVTVSS	high polyreactivity
QVQLVESGGGLVQAGGSLRLSSAASGSTFPVYALGWYRQAPGKERELVAAITRTGARTYYADSVKGRFTISRDNAKNTVYLQMNSLTPEDTAVYYCAARGAGGILGRYGYWGQGTKVTVSS	high polyreactivity
QVQLVESVGGLVQAGGSLRLSCAASGRTFYGYAMGWYRKAPGKERELVAAISTGGGRTYYADSVKGRFTISRDNAKNTVYLQMNSLKPEDTAVYYCAARRAYPHYRVDYWGQGTQVTVSS	high polyreactivity
QVQLVESGGGLVQAGGSLRLSCAASGSTFYSNVMGWYTQATGKEREFVAGISGSGGSTYYADSVKGRFTISRDNAKNTVYLQMNSLKPDDTAVYYCAKYRYSRYFRYDYWGQGTQVTVSS	high polyreactivity

Sequence	polyreactivity (PSR sort gate)
QVHLVESGGGLVQAGGSLRLSCAASGFTIDYYAMAWYRQAPGKERELDAAISRAGSTNYADSVKGRFTISRDNAKNTVYLQMNSLKPEDTAVYYCNKGYHSWSRLSQFGWSYDYWGQGTQVTVSS	high polyreactivity
QVQLVESGGGLVQAGGSLRLSCAASGRTFGGYAMGWYRQAPGKERELVAAISKRSGSTYYADSVKGRFTISRDNAKNTVYLQMNSLKPEDTAVYYCNKVWFQRSVQPVEYDYWGQGTQVTVSS	high polyreactivity
QVQLVESGGGLVQAGGSLRLSCAASGSIFLSNMGWYRQAPGKERELVAAISRNGGSTYYADSVKGRFTISRDNAKNTVYLQMNSLKPEDTAVYYCAVQRYWGQGTQVTVSS	high polyreactivity
QFQLVESGGGLVQAGGSLRLSCAASGRTYRYTMGWSRHAPGKERELVAAISRSGGSTYYADSVKGRFTISRDNAKTTVYLQMNSLIPEDTAVYYCAKVIYRYNETYDYWGQGTQVTVSS	high polyreactivity
QVQLVESGGGLVQAGGSLRLSCAPSGRTFNDYAMGWYRQAPGKESELVAAIDSDGDTNYADSVKGRFTISRDNAKNTVYLQMNSLKPEDTAVYYCNAVRLVVQEWYYYFTFDYWGQGTQVTVSS	low polyreactivity
QVQLVESGGGLVQAGGSHRLSCDSSGTFKWYAMGWYRQAPGKERELVAVISTSGGTTNYADSVKGRFTISLDNAKNTVYLQMNSLKPEDTAVYYCNAAKLFRYDYWGQGTQVTVSS	high polyreactivity
QVHLVESGGRLVQAGGSLRLSCAASGFTFSYYAMGWYRQAPGKERELVASISRSVNTYYADSVKGRFTISRDNAKNTVYLQMNSLKTEDTAVYYCAAKRISYYSYNFDYWGQGTQVTVSS	high polyreactivity
QVQLEESGGGLVQAGGSLRLSCAASGSIFSPNAMGWYRQAPGKERELVAAIDTRDGTTYYADSVKGRFTISRDNAKNTVYLQMNSLKPEDTAVYYCAADQLVGERDYWGQGTQVTVSS	low polyreactivity
QVQLVESGGGLVQAGGSLRLSCAASASIFDGYAMGWYRQAPGKERELVAAISKGGTRTYYADSVKGRFTISRDNAKNTVYLQMNSLKPEDSSVYYCNAYYRREPDDGDYDYWGQGTQVTVSS	high polyreactivity
QVQLVESCGGLVQAGGSLRLSCAASGFTFPYYTMGWYRQAPGKERELVATITGGGSTNYADSVKGRFTISRDNAKNTVYLQKNSLKPEDTAVYYCAAKRWSGYGYYGWYDYWGQGTQVTVSS	high polyreactivity
QVQLVESGGGLVQAGGSLRLSCAASGRTFRLNGMGWYRQAPGKERELVAAITWSGGRTDYADSVKGRFTISRDNAKNTVYLQMNSLKPEDTAVYYCAAGKSSYGKPKYYYWGQGTQVTVSS	high polyreactivity
QGQLVESGGGLVQAGGSLRLSCAASGSTIPVNAMAWYRQAPGKERELVAAITWGDGSTSYADSVKGRFTISRDNAKNTVYLQMNSLKPEDTAVYYCNKDFIYGYDAASYRPEYDYWGQGTQVTVSS	low polyreactivity
QVQLVESGGGLVQAGGSLRLSCAASGSIFAVYAMGWYRQAPGKERELVAASSTDYADSVKGRFTISRDYAKNTVYLQMNSLKPEDTAVYYCANVGFGIPGGFYYWGQGTKVTVSS	low polyreactivity
QVQLVESGGGLVQAGGSLRLSCAASGSTFYDYAMGWYRQAPGKERVLVAAISTSGGSTYADSVYGRFTISRDNAKNTVYLQMNSLKPEDTAVYYCNADDPGYAVPWYWFKYDYWGQGTQVTVSS	low polyreactivity
QVQLVESGGGLVQAGGSLRLSCAASGLTFWYYGMGWYRQAAGKERELDAAISKTGGRTYYADSVKGRFTISRDNAKNTVYLQMNSLKPEDTAVYYCAADTDVLKGTTGFEYWGQGTQVTVSS	low polyreactivity
QVQLVESGGGLVQAGGSLRLSCAASGRIFSYYTMGWYRQAPGKERELVAAITSGDSTNYADSVKGRFTISRDNAKNTVYLQMNSLKPEDTAVYYCNARYSGWRSRVGSSHRPDGYWGQGTQVTVSS	high polyreactivity
QVQLVESGGGLDQAGGSLRLSCAASGSTFYFYAMGWYRQAPGKEMELVAVISSGGRTYYADSVKGRFTISRDNAKNTVYLQMNSLKPEDTAVYYCAASWPSSLTYYYWGQGTQVTVSS	low polyreactivity
QVQLVESGGGLVQAGGSLRLSCAASGRTFVYYAMGWYRQAPGKERELVAAIRSGGSTNYADSVKGRFTISRDNAKNTVYLQMNSLKPEDTAVYYCNAVHYYYYKGDYWGQGTQVTVSS	high polyreactivity
QVQLVESGGGLVQAGGSLRLSCAASGRIFEYYAMGWYRQAPGKERELVAAIRSGGRTYYADSVKGRFTISRDNAKNTVYLQMNSLKPEDTAVYYCNKLYRGGYGYWGQGTQVTVSS	high polyreactivity
QVQLVESGGGLVQAGGSLRLSCAASGRIFRFYAMGWYRQAPRKERELVATIRRGDSTSYADSVKGRFTISRDNAKNTVYLQMNSLKPEDTAVYYCAAVWPSHVGTTYFWHKYGYWGQGTQVTVSS	high polyreactivity
QVQLVESGGGLVQAGGSLRLSCAASGFTFAFYAMGWYRQAPGKERELVAAITGSGGSTYYADSVKGRFTISRDNAKNTVYLQMNSLKPEDTAVYYCAADKYLDYDYWGQGTQVTVSS	high polyreactivity

From the nanobody polyreactivity screen of Harvey et al. (2022)
